Results on 15 molecules are retold here after patent publication US20230293638A1 (Eli Lilly, published 2023).

The chains are these.
B1: Peptide 181 (peptide)
peptide: YXEGTXTSDXSIXLDEKAQXEFIXYLIEGGPSSGAPPPS
modifications: Aib2; αMeF(2F)6; 3Pal10; αMeL13; K17((2-[2-(2-Amino-ethoxy)-ethoxy]-acetyl)2-(γGlu)-CO-(CH2)18-CO2H); Aib20; D-Glu24; C-terminal NH2
B2: Peptide 189 (peptide)
peptide: YXEGTXTSDXSIXLDEKAQXEFIXYLIEGGPSSGAPPPS
modifications: Aib2; αMeF(2F)6; 4Pal10; αMeL13; K17((2-[2-(2-Amino-ethoxy)-ethoxy]-acetyl)2-(γGlu)-CO-(CH2)18-CO2H); Aib20; Aib24; C-terminal NH2
B3: Peptide 187 (peptide)
peptide: YXEGTXTSDQSIXLDEKAQXEFIXYLIEGGPSSGAPPPS
modifications: Aib2; αMeF(2F)6; αMeL13; K17((2-[2-(2-Amino-ethoxy)-ethoxy]-acetyl)2-(γGlu)-CO-(CH2)18-CO2H); Aib20; D-Glu24; C-terminal NH2
B4: Peptide 203 (peptide)
peptide: YXEGTXTSDXSIXLDKKAQXEFIXYLIEGGPSSGAPPPS
modifications: Aib2; αMeF(2F)6; 4Pal10; αMeL13; K17((2-[2-(2-Amino-ethoxy)-ethoxy]-acetyl)2-(γGlu)-CO-(CH2)18-CO2H); Aib20; D-Glu24; C-terminal NH2
B5: Peptide 204 (peptide)
peptide: YXEGTXTSDXSIXLDEKAQXEFIXYLIEGGPSSGAPPPS
modifications: Aib2; αMeF(2F)6; 4Pal10; αMeL13; K17((2-[2-(2-Amino-ethoxy)-ethoxy]-acetyl)2-(γGlu)-CO-(CH2)16-CO2H); Aib20; D-Glu24; C-terminal NH2
B6: Peptide 202 (peptide)
peptide: YXEGTXTSDXSIXLDKKAQXEFIXYLIEGGPSSGAPPPS
modifications: Aib2; αMeF(2F)6; 4Pal10; αMeL13; K17((2-[2-(2-Amino-ethoxy)-ethoxy]-acetyl)-(γGlu)-(2-[2-(2-Amino-ethoxy)-ethoxy]-acetyl)-CO-(CH2)18-CO2H); Aib20; D-Glu24; C-terminal NH2
B7: Peptide 208 (peptide)
peptide: YXEGTXTSDYSIXLDEKAQXEFIXYLIEGGPSSGAPPPS
modifications: Aib2; αMeF(2F)6; αMeL13; K17((2-[2-(2-Amino-ethoxy)-ethoxy]-acetyl)2-(γGlu)-CO-(CH2)14-CO2H); Aib20; D-Glu24; C-terminal NH2
B8: Peptide 206 (peptide)
peptide: YXEGTXTSDXSIXLDEKAQXEFIXYLIEGGPSSGAPPPS
modifications: Aib2; αMeF(2F)6; 4Pal10; αMeL13; K17((2-[2-(2-Amino-ethoxy)-ethoxy]-acetyl)2-CO-(CH2)18-CO2H); Aib20; D-Glu24; C-terminal NH2
B9: Peptide 205 (peptide)
peptide: YXEGTXTSDXSIXLDEKAQXEFIXYLIEGGPSSGAPPPS
modifications: Aib2; αMeF(2F)6; 4Pal10; αMeL13; K17((2-[2-(2-Amino-ethoxy)-ethoxy]-acetyl)2-CO-(CH2)16-CO2H); Aib20; D-Glu24; C-terminal NH2
B10: Peptide 182 (peptide)
peptide: YXEGTXTSDXSIXLDEKAQXEFIXYLIEGGPSSGAPPPS
modifications: Aib2; αMeF(2F)6; 4Pal10; αMeL13; K17((2-[2-(2-Amino-ethoxy)-ethoxy]-acetyl)2-(γGlu)-CO-(CH2)18-CO2H); Aib20; D-Glu24; C-terminal NH2
B11: Peptide 183 (peptide)
peptide: YXEGTXTSDLSIXLDEKAQXEFIXYLIEGGPSSGAPPPS
modifications: Aib2; αMeF(2F)6; αMeL13; K17((2-[2-(2-Amino-ethoxy)-ethoxy]-acetyl)2-(γGlu)-CO-(CH2)18-CO2H); Aib20; D-Glu24; C-terminal NH2
B12: Peptide 207 (peptide)
peptide: YXEGTXTSDXSIXLDEKAQXEFIXYLIEGGPSSGAPPPS
modifications: Aib2; αMeF(2F)6; 4Pal10; αMeL13; K17((2-[2-(2-Amino-ethoxy)-ethoxy]-acetyl)2-(εK)-CO-(CH2)18-CO2H); Aib20; D-Glu24; C-terminal NH2
B13: Peptide 197 (peptide)
peptide: Y[αMeP]EGTFTSDYSILLDEK([AEEA-AEEA-γGlu-C18 diacid])AQQAFIEYLIEGGPSSG-NH2
modifications: N-terminus assumed
SMILES: CC[C@H](C)[C@H](NC(=O)[C@H](CC(C)C)NC(=O)[C@H](Cc1ccc(O)cc1)NC(=O)[C@H](CCC(=O)O)NC(=O)[C@@H](NC(=O)[C@H](Cc1ccccc1)NC(=O)[C@H](C)NC(=O)[C@H](CCC(N)=O)NC(=O)[C@H](CCC(N)=O)NC(=O)[C@H](C)NC(=O)[C@H](CCCCNC(=O)COCCOCCNC(=O)COCCOCCNC(=O)CC[C@H](NC(=O)CCCCCCCCCCCCCCCCC(=O)O)C(=O)O)NC(=O)[C@H](CCC(=O)O)NC(=O)[C@H](CC(=O)O)NC(=O)[C@H](CC(C)C)NC(=O)[C@H](CC(C)C)NC(=O)[C@@H](NC(=O)[C@H](CO)NC(=O)[C@H](Cc1ccc(O)cc1)NC(=O)[C@H](CC(=O)O)NC(=O)[C@H](CO)NC(=O)[C@@H](NC(=O)[C@H](Cc1ccccc1)NC(=O)[C@@H](NC(=O)CNC(=O)[C@H](CCC(=O)O)NC(=O)[C@]1(C)CCCN1C(=O)[C@@H](N)Cc1ccc(O)cc1)[C@@H](C)O)[C@@H](C)O)[C@@H](C)CC)[C@@H](C)CC)C(=O)N[C@@H](CCC(=O)O)C(=O)NCC(=O)NCC(=O)N1CCC[C@H]1C(=O)N[C@@H](CO)C(=O)N[C@@H](CO)C(=O)NCC(N)=O
B14: Peptide 180 (peptide)
peptide: Y[Aib]EGT[αMePhe(2-F)]TSDHSI[αMeL]LDEK([AEEA-AEEA-γGlu-C18 diacid])AQ[Aib]HFI[dE]YLIEGG-NH2
modifications: N-terminus assumed
SMILES: CC[C@H](C)[C@H](NC(=O)[C@H](CC(C)C)NC(=O)[C@H](Cc1ccc(O)cc1)NC(=O)[C@@H](CCC(=O)O)NC(=O)[C@@H](NC(=O)[C@H](Cc1ccccc1)NC(=O)[C@H](Cc1c[nH]cn1)NC(=O)C(C)(C)NC(=O)[C@H](CCC(N)=O)NC(=O)[C@H](C)NC(=O)[C@H](CCCCNC(=O)COCCOCCNC(=O)COCCOCCNC(=O)CC[C@H](NC(=O)CCCCCCCCCCCCCCCCC(=O)O)C(=O)O)NC(=O)[C@H](CCC(=O)O)NC(=O)[C@H](CC(=O)O)NC(=O)[C@H](CC(C)C)NC(=O)[C@](C)(CC(C)C)NC(=O)[C@@H](NC(=O)[C@H](CO)NC(=O)[C@H](Cc1c[nH]cn1)NC(=O)[C@H](CC(=O)O)NC(=O)[C@H](CO)NC(=O)[C@@H](NC(=O)[C@](C)(Cc1ccccc1F)NC(=O)[C@@H](NC(=O)CNC(=O)[C@H](CCC(=O)O)NC(=O)C(C)(C)NC(=O)[C@@H](N)Cc1ccc(O)cc1)[C@@H](C)O)[C@@H](C)O)[C@@H](C)CC)[C@@H](C)CC)C(=O)N[C@@H](CCC(=O)O)C(=O)NCC(=O)NCC(N)=O
B15: Peptide 22 (peptide)
peptide: Y[Aib]EGTFTSDYSI[αMeL]LDEK([AEEA-AEEA-γGlu-C20 diacid])AQ[αMeK]AFIEYLLE[Aib]GPSSGAPPPS-NH2
modifications: N-terminus assumed
SMILES: CC[C@H](C)[C@H](NC(=O)[C@H](Cc1ccccc1)NC(=O)[C@H](C)NC(=O)[C@](C)(CCCCN)NC(=O)[C@H](CCC(N)=O)NC(=O)[C@H](C)NC(=O)[C@H](CCCCNC(=O)COCCOCCNC(=O)COCCOCCNC(=O)CC[C@H](NC(=O)CCCCCCCCCCCCCCCCCCC(=O)O)C(=O)O)NC(=O)[C@H](CCC(=O)O)NC(=O)[C@H](CC(=O)O)NC(=O)[C@H](CC(C)C)NC(=O)[C@](C)(CC(C)C)NC(=O)[C@@H](NC(=O)[C@H](CO)NC(=O)[C@H](Cc1ccc(O)cc1)NC(=O)[C@H](CC(=O)O)NC(=O)[C@H](CO)NC(=O)[C@@H](NC(=O)[C@H](Cc1ccccc1)NC(=O)[C@@H](NC(=O)CNC(=O)[C@H](CCC(=O)O)NC(=O)C(C)(C)NC(=O)[C@@H](N)Cc1ccc(O)cc1)[C@@H](C)O)[C@@H](C)O)[C@@H](C)CC)C(=O)N[C@@H](CCC(=O)O)C(=O)N[C@@H](Cc1ccc(O)cc1)C(=O)N[C@@H](CC(C)C)C(=O)N[C@@H](CC(C)C)C(=O)N[C@@H](CCC(=O)O)C(=O)NC(C)(C)C(=O)NCC(=O)N1CCC[C@H]1C(=O)N[C@@H](CO)C(=O)N[C@@H](CO)C(=O)NCC(=O)N[C@@H](C)C(=O)N1CCC[C@H]1C(=O)N1CCC[C@H]1C(=O)N1CCC[C@H]1C(=O)N[C@@H](CO)C(N)=O

Numbered stars: 1 amine (or outer) side, 2 acyl side, 3 side chain; on linkers, the order of the positions; unused ones are H or OH. Square brackets hold non-standard residues; d marks the D form. Side chains are listed from the residue outwards. Ends that are not written are not given here. * marks the point of attachment. C20 diacid = O=C(O)CCCCCCCCCCCCCCCCCCC(=O)*; C18 diacid = O=C(O)CCCCCCCCCCCCCCCCC(=O)*; αMePhe(2-F) = C[C@](N)(Cc1ccccc1F)C(=O)O; γGlu = O=C(O)[C@H](CCC(=O)[*:2])N[*:1]; αMeL = CC(C)C[C@](C)(N)C(=O)O; αMeK = C[C@](N)(CCCCN)C(=O)O; αMeP = C[C@@]1(C(=O)O)CCCN1; AEEA = NCCOCCOCC(=O)O; Aib = CC(C)(N)C(=O)O

The assay addresses human GLP-1 receptor (human, UniProt P43220 24-463). The assay is described as follows: cell-based or functional assay.
For the molecule B1, the “hGLPIR cAMP EC50 ratio” value amounted to 0.718. Under B2 stands 0.668; under B3, 0.702.

With B4, the “hGLPIR cAMP EC50 ratio” value was 0.671. The value for B5 was 0.689. The value for B6 was 0.712; that for B7 was 0.587; that for B8 was 1.42.

Regarding B9, the “hGLPIR cAMP EC50 ratio” value amounted to 1.46. With B10, the “hGLPIR cAMP EC50 ratio” value was 0.873. As for B11, the “hGLPIR cAMP EC50 ratio” value is 0.843.

Consider B12, for which the “hGLPIR cAMP EC50 ratio” value was 1.23. Turning to B13, the “hGLPIR cAMP EC50 ratio” value is 0.189. Under B14 stands 0.0212; under B15, 0.29.
